Measurements: paper PMC8190030

Assays:
Settings in all cases: remark: other sources report otherwise
[1] = target: T1, N- (neural) cadherin of human fibroblasts (human (endogenous in primary fibroblasts)), P19022; test: AFM single-cell force spectroscopy; control of the drug series (no drug and no DMSO); cell on cantilever against cell monolayer; velocity not stated for this series
T1 chain: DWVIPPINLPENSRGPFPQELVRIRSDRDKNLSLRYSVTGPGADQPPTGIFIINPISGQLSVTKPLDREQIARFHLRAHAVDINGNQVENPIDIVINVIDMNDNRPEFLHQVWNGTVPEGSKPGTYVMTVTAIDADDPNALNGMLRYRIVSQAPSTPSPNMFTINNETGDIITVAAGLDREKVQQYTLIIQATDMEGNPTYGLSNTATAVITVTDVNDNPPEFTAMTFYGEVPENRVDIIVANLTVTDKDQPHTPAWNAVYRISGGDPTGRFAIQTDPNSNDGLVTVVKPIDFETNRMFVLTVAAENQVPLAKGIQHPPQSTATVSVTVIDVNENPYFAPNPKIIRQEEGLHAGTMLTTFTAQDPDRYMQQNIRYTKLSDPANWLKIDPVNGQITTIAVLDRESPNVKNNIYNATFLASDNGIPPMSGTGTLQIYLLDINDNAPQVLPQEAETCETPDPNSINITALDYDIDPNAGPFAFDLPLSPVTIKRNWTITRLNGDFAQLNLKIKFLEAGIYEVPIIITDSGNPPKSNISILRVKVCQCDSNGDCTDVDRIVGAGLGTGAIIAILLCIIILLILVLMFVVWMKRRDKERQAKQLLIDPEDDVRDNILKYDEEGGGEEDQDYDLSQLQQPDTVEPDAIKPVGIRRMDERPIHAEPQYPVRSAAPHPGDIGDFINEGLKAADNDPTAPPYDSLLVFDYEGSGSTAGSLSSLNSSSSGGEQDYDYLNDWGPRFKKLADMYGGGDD

[2] = target: T1, N- (neural) cadherin of human …; test: AFM single-cell force spectroscopy; as a1, approach and retract velocity 5 µm/sec
[3] = target: T1, N- (neural) cadherin of human …; test: AFM single-cell force spectroscopy; control of the drug series (no drug and no DMSO); cell on cantilever against cell monolayer; velocity not stated for this series
[4] = target: T1, N- (neural) cadherin of human …; test: AFM single-cell force spectroscopy; DMSO control of the drug series; cell on cantilever against cell monolayer
[5] = target: T1, N- (neural) cadherin of human …; test: as above
[6] = target: T1, N- (neural) cadherin of human …; test: AFM single-cell force spectroscopy; as a1, approach and retract velocity 7.5 µm/sec
[7] = target: T1, N- (neural) cadherin of human …; test: AFM single-cell force spectroscopy; with 5 µM ML-7 (myosin light chain kinase inhibited); cell on cantilever against cell monolayer
[8] = target: T1, N- (neural) cadherin of human …; test: AFM single-cell force spectroscopy; as a1, approach and retract velocity 10 µm/sec
[9] = target: T1, N- (neural) cadherin of human …; test: AFM single-cell force spectroscopy; living cell on a conA-coated tipless cantilever against a cell monolayer in a Petri dish; approach and retract velocity 3 µm/sec, maximum loading force 3 nN, contact time 2 s; 5% CO2; cadherin type assigned from immunofluorescence
[10] = target: T1, N- (neural) cadherin of human …; test: AFM single-cell force spectroscopy; with 5 µM cytochalasin D (actin filaments disassembled); cell on cantilever against cell monolayer

B1: N- (neural) cadherin of human fibroblasts, P19022 160-906 (natural protein)
chain: DWVIPPINLPENSRGPFPQELVRIRSDRDKNLSLRYSVTGPGADQPPTGIFIINPISGQLSVTKPLDREQIARFHLRAHAVDINGNQVENPIDIVINVIDMNDNRPEFLHQVWNGTVPEGSKPGTYVMTVTAIDADDPNALNGMLRYRIVSQAPSTPSPNMFTINNETGDIITVAAGLDREKVQQYTLIIQATDMEGNPTYGLSNTATAVITVTDVNDNPPEFTAMTFYGEVPENRVDIIVANLTVTDKDQPHTPAWNAVYRISGGDPTGRFAIQTDPNSNDGLVTVVKPIDFETNRMFVLTVAAENQVPLAKGIQHPPQSTATVSVTVIDVNENPYFAPNPKIIRQEEGLHAGTMLTTFTAQDPDRYMQQNIRYTKLSDPANWLKIDPVNGQITTIAVLDRESPNVKNNIYNATFLASDNGIPPMSGTGTLQIYLLDINDNAPQVLPQEAETCETPDPNSINITALDYDIDPNAGPFAFDLPLSPVTIKRNWTITRLNGDFAQLNLKIKFLEAGIYEVPIIITDSGNPPKSNISILRVKVCQCDSNGDCTDVDRIVGAGLGTGAIIAILLCIIILLILVLMFVVWMKRRDKERQAKQLLIDPEDDVRDNILKYDEEGGGEEDQDYDLSQLQQPDTVEPDAIKPVGIRRMDERPIHAEPQYPVRSAAPHPGDIGDFINEGLKAADNDPTAPPYDSLLVFDYEGSGSTAGSLSSLNSSSSGGEQDYDYLNDWGPRFKKLADMYGGGDD
median rupture force (NF–NF cells) [1]: 61.9 pN
median rupture force (SF–SF cells) [1]: 58.4 pN
median rupture force (NF–NF cells) [2]: 73.4 pN
median rupture force (SF–SF cells) [2]: 74.2 pN
median rupture force (NF–NF cells) [3]: 58.8 pN
median rupture force (SF–SF cells) [3]: 66.2 pN
median rupture force (NF–NF cells) [4]: 52 pN
median rupture force (SF–SF cells) [4]: 53.1 pN
median rupture force (NF–NF cells) [5]: 60.2 pN
median rupture force (SF–SF cells) [5]: 48.3 pN
median rupture force (NF–NF cells) [6]: 97.2 pN
median rupture force (SF–SF cells) [6]: 103 pN
median rupture force (NF–NF cells) [7]: 48.9 pN
median rupture force (SF–SF cells) [7]: 49 pN
median rupture force (NF–NF cells) [8]: 117 pN
median rupture force (SF–SF cells) [8]: 129 pN
median rupture force (NF–NF cells) [9]: 51.9 pN
median rupture force (SF–SF cells) [9]: 45.2 pN
median rupture force (NF–NF cells) [10]: 31.1 pN
median rupture force (SF–SF cells) [10]: 30.5 pN
